From US8034786B2, “Methods and means for controlling the endocytosis and subsequent degradation of growth hormone receptor” (Recharge B.V., priority 2005, dated 2011) come the findings set out here.

For test [1], the target named is GHR constructs with one of seven amino acids of the UbE motif (indicated as underlined in …) mutated to alanine. Put plainly: pull-down of 35S-labelled β-TrCP on GH-GHR beads, background (GHR 1-286) subtracted.
Another test concerns GHR and β-TrCP. The test can be described thus: Inhibition of the interaction between GHR and β-TrCP. It counts as binding.

Molecule “in vitro-translated- and 35S-labelled-TrCP2” came in with an inhibition of binding as compared to wtGHR in test [1] of more than 60%.

B1: KQQRIKMLILPPVPVPKIKGIDPDLLKEGKLEEVNTILAIHDSYKPEFHSDDS WVEFIELD (peptide)
chain: KQQRIKMLILPPVPVPKIKGIDPDLLKEGKLEEVNTILAIHDSYKPEFHSDDSWVEFIELD
notes: 61 amino acid peptide of GHR, residues 270-331
With B1, the “inhibition of F-box protein (β-TrCP) interaction with ubiquitin/proteasome binding site of GHR” value in the test on GHR and β-TrCP is on record as “capable of providing inhibition”.
